Test results taken from PMC9864931 (Vaccines, 2022).

What was measured:
[1] = target: E. coli-produced Wuhan-Hu1 RBD (receptor binding domain of the SARS-CoV-2 spike protein, a.a. 319-542) (SARS-CoV-2 (Wuhan-Hu1), UniProt P0DTC2); assay: BLI; details: both partners purified
[2] = target: mammalian cell-expressed Wuhan-Hu1 RBD reference standard (SARS-CoV-2 (Wuhan-Hu1), UniProt P0DTC2); assay: BLI; details: both partners purified

B1: mAb WRAIR-2125 (antibody, V domains shown)
VH: EVQLVESGGGVVQPGRSLRLSCAASGFTFSSYGMHWVRQAPGKGLEWVAVISYDGSNKYYADSVKGRFTISRDNSKNTLSLQMNSLRPEDTAVYYCAKDSPYYYDSSGYYPGYFQDWGQGSLVTVSS
VL: DIQMTQSPSSLSASIGDRVTITCRASQTISDYLNWYQQKPGKAPNLLIYAASTLQSGVPSRFSGSGSGTDFTLTISSLQPEDFATYYCQQSYITPRTFGQGTKVEIK
binding result [1]: binds
binding result [2]: binds

B2: mAb WRAIR-2173 (antibody, V domains shown)
VH: QVQLQESGPGLVKPSETLSLTCSVSGDSISSSDYSWGWIRQPPGKGLEWIGTIYYIKNTYYNPSLRSRVTLSVDTSKNLFSLKLSSVTAADTAVYYCARERPPFDVVVVPAARPYNWFDPWGLGTLVIVSS
VL: QSVLMQPPSVSGAPGQRVTISCTGSSSNIGAGYDVHWYQQLPGTAPKLLIYGNNNRPSGVPDRFSGSKSGTSASLAITGLQADDEADYYCQSYDSSLSGSKVFGGGTKLTVL
binding result [1]: binds
